Starred links: 1 amine or outer side, 2 acyl side, 3 side chain; linkers in the order of their positions; H or OH if unused. Non-standard residues stand in square brackets, D forms with d. Groups on a side chain read outwards from the residue. *: point of attachment. C20 diacid = O=C(O)CCCCCCCCCCCCCCCCCCC(=O)*; γGlu = O=C(O)[C@H](CCC(=O)[*:2])N[*:1]; Aib = CC(C)(N)C(=O)O
T1: human GIP receptor (human, UniProt P48546 22-466)
T1 sequence (looked up): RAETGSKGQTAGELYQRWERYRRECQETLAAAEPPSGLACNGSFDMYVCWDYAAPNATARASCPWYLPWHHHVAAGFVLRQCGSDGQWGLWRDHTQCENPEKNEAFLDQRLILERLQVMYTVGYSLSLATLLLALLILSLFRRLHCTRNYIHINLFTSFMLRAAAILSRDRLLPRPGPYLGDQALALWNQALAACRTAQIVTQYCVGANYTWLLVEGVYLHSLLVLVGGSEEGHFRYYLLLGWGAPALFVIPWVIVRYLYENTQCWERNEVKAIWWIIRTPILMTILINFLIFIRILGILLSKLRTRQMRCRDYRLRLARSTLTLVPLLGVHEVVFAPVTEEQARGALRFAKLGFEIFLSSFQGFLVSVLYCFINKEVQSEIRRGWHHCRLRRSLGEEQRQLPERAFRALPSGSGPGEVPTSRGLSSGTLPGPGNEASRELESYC


What was measured:
Assay in all cases: cell-based or functional assay
human GLP-1 receptor = human GLP-1 receptor (human, UniProt P43220 24-463)
human GIP receptor [1] = molecular target: T1, human GIP receptor
human GIP receptor [2] = molecular target: T1, human GIP receptor; remark: listed apart in the source

| Binder | EC50 hGLP1 R (cAMP, HEK293 cells expressing the GLP-1R) (human GLP-1 receptor) [nM] | EC50 hGIP R (cAMP, HEK293 cells expressing the GIP R) (human GIP receptor [1]) [nM] | EC50, hGIP-R level of cAMP (HEK293 cells expressing human GIP R) (human GIP receptor [2]) [nM] |
| --- | --- | --- | --- |
| H-Y[Aib]EGTFISDYSIELDKIAQKEFIEWLLAGPSSGAPPPSK([Peg3-Peg3-γGlu-C20 diacid])-NH2 [Compound 24] | > 10 | 0.01 | 0.008 |
| H-Y[Aib]EGTFISDYSK([Peg3-Peg3-γGlu-C20 diacid])ELDKIAQRAFIEWLLAQGPSSGAPPPS-NH2 [Compound 35] | > 3 | 0.011 | 0.008 |
| H-Y[Aib]EGTFISDYSIELDKK([Peg3-Peg3-γGlu-C20 diacid])AAQDFIEWLLAGPSSGAPPPS-NH2 [Compound 32] | > 100 | 0.012 | 0.02 |
| H-Y[Aib]EGTFISDYSIELDKK([Peg3-Peg3-γGlu-C20 diacid])AAQDFVNWLLAQGPSSGAPPPS-NH2 [Compound 10] | > 10 | 0.008 | 0.007 |
| H-Y[Aib]EGTFISDYSIELDKK([Peg3-Peg3-γGlu-C20 diacid])AAQDFINWLLAGPSSGAPPPS-NH2 [Compound 31] | > 100 | 0.009 | 0.012 |
| H-Y[Aib]EGTFISDYSIELDKK([Peg3-Peg3-γGlu-C20 diacid])AAQDFINWLLAQGPSSGAPPPS-NH2 [Compound 39] | > 100 | 0.001 | 0.007 |
| H-Y[Aib]EGTFISDYSIELDK([Peg3-Peg3-γGlu-C20 diacid])IAQRAFIEWLLAQGPSSGAPPPS-NH2 [Compound 34] | > 10 | 0.017 | 0.011 |
| YAEGTFISDYSIELDKIAAQDFIEWLLAGPSSGAPPPSK (Aib at 2; Lys 39 side chain acylated: K((19-Carboxy-nonadecanoyl)-[(Piperazine-1-yl)-acetyl]-Peg3-Peg3); C-terminal amide (-NH2)) [Compound 26] | > 10 | 0.032 | 0.017 |
| YXEGTFISDYSIELDKIAAQDFIEWLLAGPSSGAPPPSK (D-Ala at 2; Lys 39 side chain acylated: K((19-Carboxy-nonadecanoyl)-[(Piperazine-1-yl)-acetyl]-Peg3-Peg3); C-terminal amide (-NH2)) [Compound 37] | > 10 | 0.006 | 0.016 |
| H-Y[Aib]EGTFISDYSIELDKK([Peg3-Peg3-γGlu-C20 diacid])AAQAFVNWLLAGPSSGAPPPS-NH2 [Compound 29] | > 100 | 0.007 | 0.014 |
| YAEGTFISDYSIELDKKAAQDFIEWLLAGPSSGAPPPS (Aib at 2; Lys 17 side chain acylated: K((19-Carboxy-nonadecanoyl)-[(Piperazine-1-yl)-acetyl]-Peg3-Peg3); C-terminal amide (-NH2)) [Compound 33] | > 10 | 0.02 | 0.014 |
| H-Y[Aib]EGTFISDYSIELEKK([Peg3-Peg3-γGlu-C20 diacid])AAKEFVNWLLAQGPSSGAPPPS-NH2 [Compound 11] | > 3 | 0.008 | 0.009 |
| H-Y[Aib]EGTFISDYSIELDKK([Peg3-Peg3-γGlu-C20 diacid])AQKEFVEWLLAAGPSSGAPPPS-NH2 [Compound 22] | > 10 | 0.007 | 0.005 |
| H-Y[Aib]EGTFISDYSIELDKK([Peg3-Peg3-γGlu-C20 diacid])AAQDFIEWLLAQGPSSGAPPPS-NH2 [Compound 38] | > 100 | 0.017 | 0.001 |
| H-Y[Aib]EGTFISDYSIELDKK([Peg3-Peg3-γGlu-C20 diacid])AAQDFVNWLLAAGPSSGAPPPS-NH2 [Compound 30] | > 10 | 0.014 | 0.009 |
| H-Y[Aib]EGTFISDYSIELDKIAAQDFIEWLLAGPSSGAPPPSK([Peg3-Peg3-γGlu-C20 diacid])-NH2 [Compound 25] | > 100 | 0.008 | 0.032 |
| H-Y[Aib]EGTFISDYSIELDKIAAQDFVEWLLAGPSSGAPPPSK([Peg3-Peg3-γGlu-C20 diacid])-NH2 [Compound 27] | > 10 | 0.017 | 0.013 |
| H-Y[Aib]EGTFISDYSIELDKIAQRAFIEWLLAGPSSGAPPPSK([Peg3-Peg3-γGlu-C20 diacid])-NH2 [Compound 23] | > 10 | 0.005 | 0.01 |
| YAEGTFISDYSIELDKKAQRAFVEWLLAQGPSSGAPPPS (Aib at 2; Lys 17 side chain acylated: K((19-Carboxy-nonadecanoyl)-[(Piperazine-1-yl)-acetyl]-Peg3-Peg3); C-terminal amide (-NH2)) [Compound 20] | > 3 | 0.006 | 0.007 |
| YAEGTFISDYSIELDKKAQKEFVEWLLAAGPSSGAPPPS (Aib at 2; Lys 17 side chain acylated: K((19-Carboxy-nonadecanoyl)-[(Piperazine-1-yl)-acetyl]-Peg3-Peg3); C-terminal amide (-NH2)) [Compound 21] | > 3 | 0.006 | 0.007 |
| H-Y[dA]EGTFISDYSIELDKK([Peg3-Peg3-γGlu-C20 diacid])AQRAFIEWLLAQGPSSGAPPPS-NH2 [Compound 36] | > 10 | 0.006 | 0.006 |
| H-Y[Aib]EGTFISDYSIELDKIAQRAFIEWLLAQGPSSGAPPPSK([Peg3-Peg3-γGlu-C20 diacid])-NH2 [Compound 28] | > 3 | 0.013 | 0.007 |

From patent US10253078 (ZEALAND PHARMA A S, dated 2019)
